The values that follow come from patent US20140057332A1, “GLUCO-OLIGOSACCHARIDE OXIDASES FROM ACREMONIUM STRICTUM AND USES THEREOF” (The Governing Council of the University of Toronto, priority 2011, published 2014).

Data set [1] has as its system Acremonium strictum strain T1 gluco-oligosaccharide oxidase GOOX-T1. The conditions noted are these: native GOOX purified from A. strictum T1; cited from earlier work.
In data set [2] the target is T1, Acremonium strictum gluco-oligosaccharide oxidase GOOX-VN variant 1 Y300A, SEQ ID NO. 6 (Sarocladium strictum, UniProt D7PF15, A38V/S388N/Y300A).
T1 sequence (D7PF15 1-474 A38V/Y300A/S388N): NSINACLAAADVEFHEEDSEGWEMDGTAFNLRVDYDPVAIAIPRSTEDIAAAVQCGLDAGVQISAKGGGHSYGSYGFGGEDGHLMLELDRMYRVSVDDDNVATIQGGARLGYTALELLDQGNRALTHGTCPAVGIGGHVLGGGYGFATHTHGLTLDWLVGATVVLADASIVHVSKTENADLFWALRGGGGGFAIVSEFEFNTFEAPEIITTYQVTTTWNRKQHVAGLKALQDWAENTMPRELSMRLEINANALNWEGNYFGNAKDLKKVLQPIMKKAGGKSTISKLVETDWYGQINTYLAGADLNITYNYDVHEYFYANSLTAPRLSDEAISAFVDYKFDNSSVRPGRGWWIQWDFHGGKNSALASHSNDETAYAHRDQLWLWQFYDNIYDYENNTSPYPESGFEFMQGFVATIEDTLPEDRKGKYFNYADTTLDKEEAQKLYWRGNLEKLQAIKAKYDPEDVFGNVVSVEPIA
In words: Enzymatic assay, kinetic analysis (chromogenic H2O2 assay) of Y300A. As to conditions: 37° C., pH 8.0.
Protocol: (§1) A chromogenic assay was used to measure hydrogen peroxide production (15). Reactions contained 0.1 mM 4aminoantipyrine (4AA), 1 mM phenol, 0.5 U horseradish peroxidase, 40 mM Tris-HCl (pH 8.0), and different substrates were initiated by adding 0.2 μg of enzymes to the 250 μL reaction mixture. The production of H2O2 was coupled to the oxidation of 4aminoantipyrine by horseradish peroxidase and detected at 500 nm. Reactions were incubated at 37° C. for 15 min to measure the specific activity of GOOX on 10 mM of monosaccharide or 1 mM of oligosaccharide.
(§2) At least 12 substrate concentrations were included to obtain kinetic parameters for each substrate. Initial rates were obtained by measuring reaction products every 30 s for 15 min at 37° C. and pH 8.0, and kinetic parameters were calculated using the Michaelis-Menten equation (GraphPad Prism5 Software).

In data set [3] the target is T2, Acremonium strictum gluco-oligosaccharide oxidase GOOX-VN variant 2 Y300N, SEQ ID NO. 7 (Sarocladium strictum, UniProt D7PF15, A38V/S388N/Y300N).
T2 sequence (D7PF15 1-474 A38V/Y300N/S388N): T1 sequence (D7PF15 1-474 A38V/Y300A/S388N) with A300N
In words: Enzymatic assay, kinetic analysis (chromogenic H2O2 assay) of Y300N. The conditions noted are these: 37° C., pH 8.0.
Protocol: as §1, §2

The nature of data set [4]: Chromogenic H2O2 oxidase assay / kinetic analysis on NAG.
Protocol: as §1, §2
A short description of data set [5]: Chromogenic H2O2 oxidase assay / kinetic analysis on galactose.
Protocol: as §1, §2
The nature of data set [6]: Chromogenic H2O2 oxidase assay / kinetic analysis on xylose.
Protocol: as §1, §2
The nature of data set [7]: Chromogenic H2O2 oxidase assay / kinetic analysis on xylotriose.
A short description of data set [8]: Chromogenic H2O2 oxidase assay / kinetic analysis on glucose.
Protocol: as §1, §2
Data set [9] in a line: Kinetic analyses, all tested substrates. It is filed as biochemical. As to conditions: all tested monosaccharides and oligosaccharides.
Protocol: as §1, §2
A short description of data set [10]: Chromogenic H2O2 oxidase assay / kinetic analysis on maltose.
Protocol: as §1, §2
Substrate in data set [11]: OC[C@H]1O[C@@H](O[C@H]2[C@H](O)[C@@H](O)[C@H](O[C@H]3[C@H](O)[C@@H](O)C(O)O[C@@H]3CO)O[C@@H]2CO)[C@H](O)[C@@H](O)[C@@H]1O
Kind of data set: purified protein, by the assay type. The conditions noted are these: other: 37° C., pH 8.0.
Protocol: as §1, §2

Substrate in data set [12]: OC[C@H]1O[C@@H](O[C@H]2[C@H](O)[C@@H](O)C(O)O[C@@H]2CO)[C@H](O)[C@@H](O)[C@@H]1O
In words: purified protein, by the assay type. As to conditions: other: 37° C., pH 8.0.
Protocol: as §1, §2

Substrate in data set [13]: CC(=O)N[C@H]1C(O)O[C@H](CO)[C@@H](O)[C@@H]1O
In words: purified protein, by the assay type. The conditions noted are these: other: 37° C., pH 8.0.
Protocol: as §1, §2

Substrate in data set [14]: OC[C@H]1OC(O)[C@H](O)[C@@H](O)[C@H]1O
Kind of data set: purified protein, by the assay type. As to conditions: other: 37° C., pH 8.0.
Protocol: as §1, §2

Substrate in data set [15]: OC1OC[C@@H](O[C@@H]2OC[C@@H](O)[C@H](O)[C@H]2O)[C@H](O)[C@H]1O
In words: purified protein, by the assay type. As to conditions: other: 37° C., pH 8.0.
Protocol: as §1, §2

Substrate in data set [16]: OC1OC[C@@H](O)[C@H](O)[C@H]1O
Kind of data set: purified protein, by the assay type. The conditions noted are these: other: 37° C., pH 8.0.
Protocol: as §1, §2

Substrate in data set [17]: OC[C@H]1OC(O)[C@H](O)[C@@H](O)[C@@H]1O
Kind of data set: purified protein, by the assay type. As to conditions: other: 37° C., pH 8.0.
Protocol: as §1, §2

Substrate in data set [18]: OC[C@H]1O[C@H](O[C@H]2[C@H](O)[C@@H](O)C(O)O[C@@H]2CO)[C@H](O)[C@@H](O)[C@@H]1O
In words: purified protein, by the assay type. As to conditions: other: 37° C., pH 8.0.
Protocol: as §1, §2

Substrate in data set [19]: OC1OC[C@@H](O[C@@H]2OC[C@@H](O[C@@H]3OC[C@@H](O)[C@H](O)[C@H]3O)[C@H](O)[C@H]2O)[C@H](O)[C@H]1O
In words: purified protein, by the assay type. The conditions noted are these: other: 37° C., pH 8.0.
Protocol: as §1, §2

The nature of data set [20]: Chromogenic H2O2 oxidase assay on mannose.
Protocol: as §1
An additional eight mutations, identified as Y72F, Y72A, E247A, E314A, W351A, N388S, Q353N, Q384A, were created in GOOX-VN to assess the influence of these residues on the substrate selectivity of GOOX-VN. […] The specific activity of each mutant was then measured at 37° C. for 15 min using 10 mM mono-sugars and 1 mM oligosaccharides as performed for Y300A, Y300N, and W351F (Table 11).
The nature of data set [21]: Chromogenic H2O2 oxidase assay / kinetic analysis on xylobiose.
The nature of data set [22]: Chromogenic H2O2 oxidase assay / kinetic analysis on cellotriose.
Protocol: as §1, §2
Data set [23] can be described thus: Chromogenic H2O2 oxidase assay / kinetic analysis on cellobiose.
Protocol: as §1, §2
A short description of data set [24]: Effect of deglycosylation with PNGaseF on enzyme activity. It is filed as biochemical. As to conditions: 10 mM maltose, 15 min at 37° C., duplicate. The procedure:
Approximately 2 μg of purified enzyme was treated with PNGaseF (New England Biolabs) using denaturing and native conditions. Samples that were deglycosylated using denaturing conditions were analysed by SDS PAGE, while samples deglycosylated using native conditions were used to evaluate the impact of glycosylation on enzyme activity. The activity of enzymes was measured on 10 mM maltose at 37° C. for 15 min. (Table 7). N-glycosylation was predicted by NetNGlyc (http://www.cbs.dtu.dk/services/NetNGlyc/) while O-glycosylation was predicted by OGPET (http://ogpet.utep.edu/OGPET/).

Numbering of substitutions follows the chain as printed. Numbers in names are those of the source.

As usually defined, the kcat is the number of substrate molecules converted per active site and unit of time at saturation. For the molecule `OC[C@H]1O[C@@H](O[C@H]2[C@H](O)[C@@H](O)[C@H](O[C@H]3[C@H](O)[C@@H](O)C(O)O[C@@H]3CO)O[C@@H]2CO)[C@H](O)[C@@H](O)[C@@H]1O` (stereo partly drawn) [Cellotriose, cellotriose], the “catalytic efficiency (in words)” value in [1] is “highest”. For the same molecule, the kcat in [2] came out at 11.12 ± 0.158 s⁻¹; in data set [3], 9.983 ± 0.0817 s⁻¹.

B1: Acremonium strictum gluco-oligosaccharide oxidase GOOX-VN variant 1 Y300A, SEQ ID NO. 6 (Sarocladium strictum; A38V/S388N/Y300A) (protein)
chain: T1 sequence (D7PF15 1-474 A38V/Y300A/S388N)
As usually defined, the Km is the substrate concentration at which the rate is half of its maximum. Usually kcat/Km stands for the turnover number divided by the Michaelis constant. On to B1, for which the “Specific activity Defined substrate concentration” value is 1.1 µmol/mg/min in data set [4] (10 mM NAG, 37° C., 15 min); 1.15 µmol/mg/min in data set [5] (10 mM galactose, 37° C., 15 min); 1.57 µmol/mg/min in data set [6] (10 mM xylose, 37° C., 15 min); 3.22 µmol/mg/min in data set [7] (1 mM xylotriose, 37° C., 15 min); 7.15 µmol/mg/min in data set [8] (10 mM glucose, 37° C., 15 min); 0.85 µmol/mg/min in [10] (1 mM maltose, 37° C., 15 min). Moreover, the “Specific activity Defined substrate concentration” value in data set [20] (10 mM mannose, 37° C., 15 min) stood at 0.11 µmol/mg/min; in data set [21] (1 mM xylobiose, 37° C., 15 min), 2.10 µmol/mg/min; in data set [22] (1 mM cellotriose, 37° C., 15 min), 9.03 µmol/mg/min; in [23] (1 mM cellobiose, 37° C., 15 min), 10.72 µmol/mg/min. The “Specific activity From Vmax” value worked out at 12.67 µmol/mg/min in data set [4] (substrate NAG); 13.17 µmol/mg/min in [5] (substrate galactose); 11.22 µmol/mg/min in data set [6] (substrate xylose); 13.73 µmol/mg/min in [7] (substrate xylotriose); 13.09 µmol/mg/min in data set [8] (substrate glucose); 10.31 µmol/mg/min in data set [10] (substrate maltose). Also, the “Specific activity From Vmax” value in [21] (substrate xylobiose) was determined as 13.16 µmol/mg/min; in [22] (substrate cellotriose) it was 11.00 µmol/mg/min; in [23] (substrate cellobiose), 13.58 µmol/mg/min. The “catalytic activity (kcat) relative to GOOX-VN” value in data set [9] is on record as “approximately two times higher”. The Km in data set [11] was found to be 0.25 ± 0.02 mM; in [12], 0.24 ± 0.02 mM; in data set [13], 92.4 ± 4.65 mM; in [14], 96.39 ± 5.15 mM; in data set [15] it was 5.11 ± 0.15 mM; in data set [16], 51.84 ± 1.90 mM. Further, the Km was 8.11 ± 0.40 mM in [17], 11.00 ± 0.53 mM in [18] and 3.15 ± 0.11 mM in data set [19]. In addition, the kcat in data set [13] came to 12.8 ± 0.223 s⁻¹; in data set [18], 10.4 ± 0.123 s⁻¹. For the same molecule, the specificity constant (kcat/Km) stood at 138 ± 6.67 M⁻¹ s⁻¹ in data set [13] and 947 ± 46.7 M⁻¹ s⁻¹ in data set [18]. The “activity on mannose (in words)” value in data set [20] was “low activity”. For the same molecule, the “Activity, Deglycosylated” value in [24] (deglycosylated with PNGaseF (native conditions)) turned out to be 3.9 nmol/min. Besides, the “Activity, Glycosylated” value in [24] (glycosylated enzyme) was 4.09 nmol/min.
